Molecular target: T1, CasEnd-5 (synthetic construct)
T1 chain: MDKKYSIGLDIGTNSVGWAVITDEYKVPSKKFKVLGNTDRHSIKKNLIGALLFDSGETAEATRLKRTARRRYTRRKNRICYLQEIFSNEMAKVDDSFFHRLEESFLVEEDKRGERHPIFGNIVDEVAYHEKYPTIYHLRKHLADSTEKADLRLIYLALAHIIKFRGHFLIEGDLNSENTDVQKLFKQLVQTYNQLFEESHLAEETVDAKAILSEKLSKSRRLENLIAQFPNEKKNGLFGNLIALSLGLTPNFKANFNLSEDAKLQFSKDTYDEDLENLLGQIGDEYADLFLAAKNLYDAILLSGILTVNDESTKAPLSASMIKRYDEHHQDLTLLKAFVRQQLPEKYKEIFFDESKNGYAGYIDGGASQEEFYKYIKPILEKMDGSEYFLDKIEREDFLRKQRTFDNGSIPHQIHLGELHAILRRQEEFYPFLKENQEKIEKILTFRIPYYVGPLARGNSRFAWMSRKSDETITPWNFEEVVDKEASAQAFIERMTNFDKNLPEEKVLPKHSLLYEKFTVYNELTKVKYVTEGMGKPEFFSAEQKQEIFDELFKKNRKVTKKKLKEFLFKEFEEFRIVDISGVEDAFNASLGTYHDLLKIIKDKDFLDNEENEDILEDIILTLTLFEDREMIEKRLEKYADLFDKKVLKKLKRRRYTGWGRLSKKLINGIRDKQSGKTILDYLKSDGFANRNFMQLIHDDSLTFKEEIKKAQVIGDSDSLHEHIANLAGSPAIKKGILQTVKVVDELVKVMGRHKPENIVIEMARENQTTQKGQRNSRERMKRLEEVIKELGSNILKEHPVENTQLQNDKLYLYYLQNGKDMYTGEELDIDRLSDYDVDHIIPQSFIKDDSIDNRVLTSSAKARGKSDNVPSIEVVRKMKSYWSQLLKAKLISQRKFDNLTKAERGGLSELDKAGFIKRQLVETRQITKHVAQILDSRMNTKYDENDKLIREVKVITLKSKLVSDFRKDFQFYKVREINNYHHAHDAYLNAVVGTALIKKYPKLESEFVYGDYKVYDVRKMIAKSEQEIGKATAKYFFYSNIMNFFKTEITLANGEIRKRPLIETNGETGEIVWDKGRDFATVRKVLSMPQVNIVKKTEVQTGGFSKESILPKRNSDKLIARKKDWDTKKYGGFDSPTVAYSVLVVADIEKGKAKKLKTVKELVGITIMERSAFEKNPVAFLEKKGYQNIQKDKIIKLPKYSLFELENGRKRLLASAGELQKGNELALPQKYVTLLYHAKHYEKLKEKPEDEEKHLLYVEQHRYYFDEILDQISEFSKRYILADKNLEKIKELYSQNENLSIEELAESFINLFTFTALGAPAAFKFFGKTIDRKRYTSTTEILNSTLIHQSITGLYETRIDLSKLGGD
Assay: cell_activity; +++; HEK293T; PAM not stated
Procedure, shortened: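 BFP-to-GFP conversion via reverse transcriptase fusion with each Cas endonuclease plus template RNA: 200 ng of each plasmid nucleofected into 250,000 BFP-expressing HEK293T cells (program DS-150). Percent GFP+ cells by flow cytometry at day 4 measured editing.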

B1: BFP-to-GFP template RNA ; BFP reporter protospacer (ssRNA ; dsDNA)
RNA: GCCGAAGCACUGCACGCCGUGUUUUAGAGCUAGAAAUAGCAAGUUAAAAUAAGGCUAGUCCGUUAUCAACUUGAAAAAGUGGCACCGAGUCGGUGCACCCUGACGUACGGCGUGCAGUGCUU
DNA 1: GCCGAAGCACTGCACGCCGT
DNA 2: ACGGCGTGCAGTGCTTCGGC
Question: How did the activity turn out when B1 was run?
Answer: ≥ 100 % of reference

Reference: patent US20250092426, “CAS ENDONUCLEASES AND RELATED METHODS” (Flagship Pioneering Innovations VII, LLC, published 2025)
